What was measured:
Assay in all cases: cryo-EM structure; single-particle cryo-EM of the hexameric CORVET co-expressed in yeast and purified by 3xFLAG on Vps8 and SEC; about 0.8 mg/ml; consensus map 4.6 Å, local refinements to 3.8 Å
Conditions in all cases: both partners purified
Vps3 (CORVET subunit) = target: T1, Vps3 (CORVET subunit) (yeast, UniProt P23643 1-1011)
T1 construct: UniProt P23643 printed for its AlphaFold model; N-terminal half (with the β-propeller) was removed from the deposited model; source: yeast lysate in the Vps8-ALFA pull-downs
T1 sequence: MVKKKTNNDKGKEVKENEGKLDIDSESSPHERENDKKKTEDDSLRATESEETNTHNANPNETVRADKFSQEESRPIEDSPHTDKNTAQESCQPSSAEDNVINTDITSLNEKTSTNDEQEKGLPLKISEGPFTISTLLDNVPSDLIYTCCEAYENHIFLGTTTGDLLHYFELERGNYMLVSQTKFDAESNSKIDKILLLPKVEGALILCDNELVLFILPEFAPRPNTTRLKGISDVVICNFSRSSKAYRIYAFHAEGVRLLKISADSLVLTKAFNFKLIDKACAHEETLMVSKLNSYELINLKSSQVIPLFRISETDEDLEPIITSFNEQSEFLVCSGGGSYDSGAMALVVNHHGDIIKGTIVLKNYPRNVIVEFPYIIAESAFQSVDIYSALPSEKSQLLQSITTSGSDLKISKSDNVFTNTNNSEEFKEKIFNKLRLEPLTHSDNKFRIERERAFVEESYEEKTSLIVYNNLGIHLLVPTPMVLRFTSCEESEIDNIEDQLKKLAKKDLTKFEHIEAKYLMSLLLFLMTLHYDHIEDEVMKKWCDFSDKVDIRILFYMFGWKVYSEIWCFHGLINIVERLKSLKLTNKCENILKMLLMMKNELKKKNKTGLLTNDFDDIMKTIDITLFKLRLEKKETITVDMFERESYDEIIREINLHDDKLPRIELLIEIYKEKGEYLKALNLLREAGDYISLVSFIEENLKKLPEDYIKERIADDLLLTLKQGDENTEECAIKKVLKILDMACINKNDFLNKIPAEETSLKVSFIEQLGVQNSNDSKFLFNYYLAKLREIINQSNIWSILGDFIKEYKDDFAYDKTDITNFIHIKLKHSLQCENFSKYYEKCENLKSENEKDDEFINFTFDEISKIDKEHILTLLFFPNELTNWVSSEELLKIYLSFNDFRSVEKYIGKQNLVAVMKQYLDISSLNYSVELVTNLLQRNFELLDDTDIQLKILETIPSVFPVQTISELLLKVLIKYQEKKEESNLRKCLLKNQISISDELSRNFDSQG

[1] = target: T2, Vps8 with 3xFLAG tag (CORVET subunit) (yeast, UniProt P39702 1-1274)
T2 construct: UniProt P39702 printed for its AlphaFold model
T2 sequence: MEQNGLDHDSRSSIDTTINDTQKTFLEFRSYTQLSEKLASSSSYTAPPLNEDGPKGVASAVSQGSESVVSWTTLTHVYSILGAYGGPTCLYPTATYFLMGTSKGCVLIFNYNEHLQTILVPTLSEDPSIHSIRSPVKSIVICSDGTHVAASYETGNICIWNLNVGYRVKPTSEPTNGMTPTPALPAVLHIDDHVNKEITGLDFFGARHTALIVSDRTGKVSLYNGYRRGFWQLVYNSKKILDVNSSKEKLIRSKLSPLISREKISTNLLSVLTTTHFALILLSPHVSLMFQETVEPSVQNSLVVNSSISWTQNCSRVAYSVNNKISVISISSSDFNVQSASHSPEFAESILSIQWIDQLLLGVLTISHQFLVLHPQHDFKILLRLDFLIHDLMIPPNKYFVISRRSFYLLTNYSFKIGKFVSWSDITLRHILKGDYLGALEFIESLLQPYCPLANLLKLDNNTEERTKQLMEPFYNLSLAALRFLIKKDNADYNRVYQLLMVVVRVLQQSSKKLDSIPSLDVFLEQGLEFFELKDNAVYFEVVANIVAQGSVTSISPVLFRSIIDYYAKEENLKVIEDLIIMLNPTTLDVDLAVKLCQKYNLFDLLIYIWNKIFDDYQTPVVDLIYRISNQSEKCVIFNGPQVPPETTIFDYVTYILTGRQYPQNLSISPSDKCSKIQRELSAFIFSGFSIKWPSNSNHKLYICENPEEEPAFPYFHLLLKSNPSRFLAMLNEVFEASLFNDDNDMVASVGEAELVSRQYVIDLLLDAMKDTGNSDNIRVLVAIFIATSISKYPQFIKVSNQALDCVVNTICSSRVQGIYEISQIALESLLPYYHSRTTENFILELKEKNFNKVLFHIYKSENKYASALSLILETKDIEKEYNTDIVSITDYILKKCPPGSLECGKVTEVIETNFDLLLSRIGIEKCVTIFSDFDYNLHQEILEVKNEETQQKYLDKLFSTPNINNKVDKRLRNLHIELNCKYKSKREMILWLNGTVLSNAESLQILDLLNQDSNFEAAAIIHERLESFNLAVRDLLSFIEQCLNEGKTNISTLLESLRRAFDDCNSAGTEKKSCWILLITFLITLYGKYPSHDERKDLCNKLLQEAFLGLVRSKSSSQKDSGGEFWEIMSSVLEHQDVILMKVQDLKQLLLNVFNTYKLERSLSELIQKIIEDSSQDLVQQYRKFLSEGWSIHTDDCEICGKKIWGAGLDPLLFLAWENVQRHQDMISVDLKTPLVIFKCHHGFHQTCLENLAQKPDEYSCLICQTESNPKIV

[2] = target: T3, Vps11 (CORVET and HOPS core subunit) (yeast, UniProt P12868 1-1029)
T3 construct: Vps11, yeast, core subunit shared by CORVET and HOPS
T3 sequence: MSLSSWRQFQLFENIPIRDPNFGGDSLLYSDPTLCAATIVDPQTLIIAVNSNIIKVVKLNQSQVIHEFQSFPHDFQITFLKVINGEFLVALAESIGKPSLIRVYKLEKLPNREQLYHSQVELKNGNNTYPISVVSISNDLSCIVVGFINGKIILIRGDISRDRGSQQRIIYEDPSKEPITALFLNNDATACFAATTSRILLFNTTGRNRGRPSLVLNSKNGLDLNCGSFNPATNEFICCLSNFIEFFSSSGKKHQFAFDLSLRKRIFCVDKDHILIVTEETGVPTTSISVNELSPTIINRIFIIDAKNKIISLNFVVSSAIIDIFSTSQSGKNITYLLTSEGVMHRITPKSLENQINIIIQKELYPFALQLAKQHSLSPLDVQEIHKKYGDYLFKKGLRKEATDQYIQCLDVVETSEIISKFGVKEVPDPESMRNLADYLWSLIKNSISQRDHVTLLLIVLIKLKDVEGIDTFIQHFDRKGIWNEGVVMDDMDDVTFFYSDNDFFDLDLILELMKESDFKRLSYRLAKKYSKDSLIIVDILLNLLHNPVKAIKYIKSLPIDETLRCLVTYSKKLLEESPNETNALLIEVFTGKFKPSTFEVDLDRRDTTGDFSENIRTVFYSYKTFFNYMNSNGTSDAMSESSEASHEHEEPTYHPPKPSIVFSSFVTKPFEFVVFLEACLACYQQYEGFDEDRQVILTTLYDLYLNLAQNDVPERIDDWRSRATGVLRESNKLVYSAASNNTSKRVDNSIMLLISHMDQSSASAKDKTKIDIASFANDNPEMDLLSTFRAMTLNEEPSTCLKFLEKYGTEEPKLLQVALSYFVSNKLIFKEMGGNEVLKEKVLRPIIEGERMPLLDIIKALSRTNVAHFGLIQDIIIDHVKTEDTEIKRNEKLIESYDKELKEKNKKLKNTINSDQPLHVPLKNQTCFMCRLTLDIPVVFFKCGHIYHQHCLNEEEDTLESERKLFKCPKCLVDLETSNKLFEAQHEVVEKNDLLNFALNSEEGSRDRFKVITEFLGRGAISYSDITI

Measured: binding result

B1: Vps18 (CORVET and HOPS core subunit) (natural protein, yeast)
chain: MIKTRIEEVQLQFLTGNTELTHLKVSNDQLIVTTQRTIYRINLQDPAIVNHFDCPLSKELETIMNVHVSPMGSVILIRTNFGRYMLLKDGEFTQLNKIKNLDLSSLHWINETTFLMGIKKTPKLYRVELTGKDITTKLWYENKKLSGGIDGIAYWEGSLLLTIKDNILYWRDVTNMKFPLVLPDESEQFERLKHHAIKKFDSYNGLFAWVTSNGIVFGDLKEKQMEKDPASNNFGKFLSSSKVLLNFELPDYQNDKDHLIKDIVLTAFHILLLRKNTVTMVSQLNNDVVFHETIPRHQLTGSNTDSNEKFLGLVRDSVKETFWCFSNINVFEIIIENEPNSVWNLLVRDNKFDKALSLKGLTVREIESVKLSKAMYLFHTAKDFHSAAQTLGSMKDLSHFGEIALNFLQIKDYNDLNVILIKQLDNVPWKSTQVVLSSWIIWNFMKQLNDIELKINTTKPASTDEDNLLNWNLNLKEKSNELTKFLESHLEKLDNETVYQIMSKQNRQNELLIFASLINDMKFLLSFWIDQGNWYESLKILLTINNHDLVYKYSLILLLNSPEATVSTWMKIKDLDPNKLIPTILKFFTNWQNNSKLITNISEYPENYSLTYLKWCVREVPKMCNPIVYNSILYMMITDPRNDMILENDIIKFMKSNENKYDLNFQLRLSLKFKKTKTSIFLLTRLNLFEDAIDLALKNNLIDDCKVIVNDEILIEDYKLRKRLWLKIAKHLLLSMKDIDIKQLIRTILNDSNEILTIKDLLPFFNEYTTIANLKEELIKFLENHNMKMNEISEDIINSKNLKVEINTEISKFNEIYRILEPGKSCDECGKFLQIKKFIVFPCGHCFHWNCIIRVILNSNDYNLRQKTENFLKAKSKHNLNDLENIIVEKCGLCSDININKIDQPISIDETELAKWNE
notes: Vps18, yeast, core subunit shared by CORVET and HOPS
binds: all assays above

Source: PMC11187117, “Structure of the endosomal CORVET tethering complex” (Nature Communications, 2024)
